Molecular target: acetylated BSA (AcBSA) (bovine (from the name BSA), UniProt P02769 25-607, acetylated (lysyl acetylation); extent not stated)
Assay: SPR

Sequence of acetylated BSA (AcBSA) (P02769 25-607): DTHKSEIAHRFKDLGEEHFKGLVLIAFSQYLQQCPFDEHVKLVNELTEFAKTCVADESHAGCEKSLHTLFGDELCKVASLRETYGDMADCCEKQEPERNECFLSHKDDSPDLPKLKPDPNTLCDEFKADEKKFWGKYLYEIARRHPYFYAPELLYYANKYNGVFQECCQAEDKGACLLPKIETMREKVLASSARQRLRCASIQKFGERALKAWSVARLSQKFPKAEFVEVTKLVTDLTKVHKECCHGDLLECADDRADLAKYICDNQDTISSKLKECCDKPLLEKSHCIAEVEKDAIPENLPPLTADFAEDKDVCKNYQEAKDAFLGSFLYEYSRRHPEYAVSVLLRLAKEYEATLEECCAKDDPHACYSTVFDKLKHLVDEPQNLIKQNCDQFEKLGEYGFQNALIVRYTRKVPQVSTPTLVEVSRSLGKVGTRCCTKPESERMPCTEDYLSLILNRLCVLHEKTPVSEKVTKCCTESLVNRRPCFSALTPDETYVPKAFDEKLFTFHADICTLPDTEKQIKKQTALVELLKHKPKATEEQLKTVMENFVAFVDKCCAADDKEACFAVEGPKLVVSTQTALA

B1: SR‐F1(20‐421), SR‐F1 ectodomain (domain or fragment)
chain: SELDPKGQHVCVASSPSAELQCCAGWRQKDQECTIPICEGPDACQKDEVCVKPGLCRCKPGFFGAHCSSRCPGQYWGPDCRESCPCHPHGQCEPATGACQCQADRWGARCEFPCACGPHGRCDPATGVCHCEPGWWSSTCRRPCQCNTAAARCEQATGACVCKPGWWGRRCSFRCNCHGSPCEQDSGRCACRPGWWGPECQQQCECVRGRCSAASGECTCPPGFRGARCELPCPAGSHGVQCAHSCGRCKHNEPCSPDTGSCESCEPGWNGTQCQQPCLPGTFGESCEQQCPHCRHGEACEPDTGHCQRCDPGWLGPRCEDPCPTGTFGEDCGSTCPTCVQGSCDTVTGDCVCSAGYWGPSCNASCPAGFHGNNCSVPCECPEGLCHPVSGSCQPGSGSRDT
  Kd: 917 nM
